Test results published in patent US9962427B2, “Treatment of right ventricular dysfunction due to pressure overload” (OTTAWA HOSPITAL RESEARCH INSTITUTE, priority 2016, dated 2018).

Columns and labels:
rats = assay: M-mode ECHO after 2 weeks of osmotic minipump delivery in rats; format: in vivo, rat; conditions: hCT1 6 μg/kg/hr
Procedure: FIGS. 3A, 3B, and 3C. […] Arrows (in upper panels) point to myocardial wall (RVLW). Dotted lines (in lower panels) show inner ventricle chambers.
CT-1 was tested in vivo to determine whether its administration would induce a myocardial adaptive remodeling characteristic of physiologic compensation (FIGS. 3A, 3B, and 3C). Osmotic minipumps containing PBS control (Ctrl) or hCT1 (6 μg/kg/hr) or Isoproterenol (ISO, 1 mg/kg/day) were implanted subcutaneously in rats. ISO is a beta-adrenergic receptor agonist and continuous infusion with ISO in rats is known to induce pathological cardiac hypertrophy and cardiomyocyte damage (in both the right and left ventricles) which progresses to heart failure (Morisco et al (2001) J Mol Cell Cardiol 33:561-573 and Grimm et al (1998) Cardiovascular Research 37:91-100). After 2 weeks of treatment, M-mode ECHO analysis was used to assess myocardial structure/function (FIG. 3A). In this model, an increased right ventricle lateral wall (RVLW) thickness indicates the presence of myocardiocytes growth, and an increased ratio of the right to left ventricle internal diameters (RVID/LVID) is an indicator of pathologic hypertrophy. An increased RVLW thickness but constant or reduced RVID:LVID ratio is an indicator of adaptive compensatory RV remodeling. Both hCT1 and ISO induced a significant increase in RVLW thickness (12% and 32% fold increase, respectively) compared to control rats (n=3; * and **, P<0.05). […] An in vivo growth reversal analysis was also conducted. Following a 2 week delivery of CT-1 protein (6 μg/kg/hr) or PE (10 mg/kg/day) as the pathologic control in this case, animals were then assessed for cardiac structure/function at a 6 week follow-on period. […] Collectively, these studies support the contention that CT-1 elicits a reversible physiologic cardiac adaptive compensation.

Fischer CDF rats = assay: SU5416/hypoxia model of severe pulmonary hypertension, weekly echocardiography and hemodynamics; format: in vivo, rat
Procedure: FIGS. 5A and 5B. Human Cardiotrophin-1 (hCT1) improves RV adaptation to severe Pulmonary Hypertension (PH) in Fischer rats.
Given that CT-1 induces phenotypic characteristics associated with beneficial RV physiologic adaptive compensation, a prediction was made by the Applicants that CT-1 would enhance RV adaptation to increased afterload in a disease setting. This supposition was tested to examine whether CT-1 protein can improve the ability of the RV to functionally adapt and limit or reduce right heart failure that is associated with pulmonary arterial hypertension (PAH), a form of PH caused by abnormalities in the lung vasculature (FIGS. 5A and 5B). PAH has a highly tractable and reproducible rodent equivalent, the […]/hypoxia rat model, which recapitulates many key aspects of the disease including progressive right heart failure in the Fischer CDF™ rat strain, a feature that is not observed in the Sprague Dawley strain in the same model of PH. Use of this PH model offers a clear advantage in providing an accurate preclinical disease setting to test the utility of CT-1, rather than simply testing co-administration of CT-1 with general […] stimulants such as PE or ISO in vivo. […] Also, right heart failure drives symptoms and prognosis in many forms of PH, including in Group 2 PH caused by increases in left ventricular filling pressures, of which heart failure with preserved ejection fraction (HFpEF) is an important example which is increasingly recognized as one of the greatest therapeutic challenges in clinical cardiology today. PH was induced by administering a single subcutaneous injection of SU5416 (20 mg/kg) to Fischer CDF™ rats followed by exposure to chronic hypoxia (8-10% O2) for 3 weeks. After these 3 weeks, rats were recovered for 24 hours in normoxia before implantation of PBS filled (control) or hCT-1 filled (6 μg/kg/hr delivery) osmotic minipumps. Control rats were exposed to normoxic conditions throughout the study and only treated with PBS (FIG. 5A). Echocardiography analyses were conducted weekly and the following parameters were measured: Right Ventricle Posterior Wall thickness (RVPW), Ratio of Right Ventricle Internal Diameter to Left Ventricle Internal (RVID/LVID), Pulmonary Artery Acceleration Time (PAAT), Fractional Area Change (FAC), and Cardiac Output (CO). At 3 weeks (prior to pump implantation), there was already a marked and significant increase in the RVID/LVID ratio, indicative of developing RV failure in this model of severe PH. In PH animals receiving saline, there was a progressive increase in this ratio over the subsequent 3 weeks, associated with other evidence of progressive RV failure, such as worsening contractile function (Fractional Area Shortening) and reductions in cardiac output.

primary cardiomyocytes = assay: Microarray gene expression analysis of primary cardiomyocytes (Affymetrix Rat gene 2.0ST array); format: cell-based; conditions: 0.5 nM, 24 hours, versus non-stimulated
Procedure: FIGS. 8A and 8B. […] FIG. 8B Microarray analysis of primary cardiomyocytes stimulated with hCT1 (0.5 nM) for 24 hours.
Applicant explored the role of CT-1 as a pro-angiogenic factor in the adaptive hypertrophic response. Physiologic cardiac adaptive compensation is associated with an increase in capillary density, whereas pathologic response is characterized by a decline or no change at all. Importantly, the compensatory vascular growth/angiogenesis that occurs during physiologic adaptive compensation is permissive for the increased workload that accompanies physiologic adaptive compensation. Despite this adaptation, little information exists regarding the mechanisms that match the demand for angiogenesis to the beneficial form of myocardial growth. The rapid in vitro and in vivo adaptive compensation in response to CT-1 supports a hypothesis that the cardiomyocyte itself may act in a paracrine fashion, to signal and promote angiogenesis. To address this conjecture, Applicant examined whether CT-1 treated primary cardiomyocytes produced vascular endothelial growth factor (VEGF), an angiogenic factor known to be produced and secreted by cardiomyocytes. Primary cardiomyocytes were incubated with control serum-free media (Ctrl, SF media) or stimulated with hCT1 (0.5 nM), PE (100 μM), or PAC-1 (25 μM) for 24 hours. […]

[1] = hCT-1 6 μg/kg/hr minipump from week 3
[2] = hCT-1 6 μg/kg/hr minipump from week 3, over 3 weeks

B1: hCT1: Recombinant human CT1 protein; 201 amino acid sequence, GenBank Accession Nos AAD12173 and AAA85229 (human) (protein, UniProt Q16619 1-201, looked up)
Cardiotrophin-1: MSRREGSLEDPQTDSSVSLLPHLEAKIRQTHSLAHLLTKYAEQLLQEYVQLQGDPFGLPSFSPPRLPVAGLSAPAPSHAGLPVHERLRLDAAALAALPPLLDAVCRRQAELNPRAPRLLRRLEDAARQARALGAAVEALLAALGAANRGPRAEPPAATASAASATGVFPAKVLGLRVCGLYREWLSRTEGDLGQLLPGGSA
rats
  RVID/LVID ratio, in words: did not develop this pathologic state of cardiac hypertrophy
rats; ISO 1 mg/kg/day, subcutaneous minipump
  increase in RVLW thickness compared to control rats: 12 % fold increase
Fischer CDF rats; [1]
  RV afterload (right ventricular systolic pressure, RVSP): without any alteration in the RV afterload
  right atrial pressure (RAP): significant decrease in right atrial pressure
Fischer CDF rats; [2]
  RVID/LVID ratio: progressive improvement in the RVID/LVID ratio
  cardiac output: improvements
  contractile function: improvements in contractile function
Primary cardiomyocytes
  VEGF increase (microarray): 1.3 fold
  angiogenic and endothelial factors (Angpt14, Flt4, Vwa5a) expression: robust induction
